This note sets out measurements from patent US20120021988A1, “METHODS FOR TREATING IMMUNE THROMBOCYTOPENIA” (priority 2007, published 2012).

The target of assay [1] is FcγIIb (UniProt P31994). The assay can be described thus: reverse ELISA, PAP on FcγIIb-coated plate without competitor. (In general: An ELISA detects its analyte on a solid surface through an enzyme-linked reagent.)
The target in assay [2] is FcγIIb (UniProt P31994). Put plainly: reverse ELISA (repeat), PAP on FcγIIb/c-coated plate without competitor.
A further assay has as its target FcγI (UniProt P12314). Put plainly: reverse ELISA (repeat), PAP on Fcγ1-coated plate without competitor.
Chain of UniProt P12314 (P12314 16-288 limits assumed): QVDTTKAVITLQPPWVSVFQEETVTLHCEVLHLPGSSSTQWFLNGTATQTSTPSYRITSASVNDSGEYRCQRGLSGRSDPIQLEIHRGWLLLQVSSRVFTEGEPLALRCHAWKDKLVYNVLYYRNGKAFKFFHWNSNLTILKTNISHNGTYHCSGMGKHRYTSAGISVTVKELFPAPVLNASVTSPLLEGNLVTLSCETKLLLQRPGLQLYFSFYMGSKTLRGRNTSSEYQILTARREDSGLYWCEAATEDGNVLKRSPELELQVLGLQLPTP
The next assay has as its target FcγIIIa (UniProt P08637). Put plainly: reverse ELISA, PAP on FcγIIIa-coated plate without competitor.
Chain of UniProt P08637 (P08637 17-208 limits assumed): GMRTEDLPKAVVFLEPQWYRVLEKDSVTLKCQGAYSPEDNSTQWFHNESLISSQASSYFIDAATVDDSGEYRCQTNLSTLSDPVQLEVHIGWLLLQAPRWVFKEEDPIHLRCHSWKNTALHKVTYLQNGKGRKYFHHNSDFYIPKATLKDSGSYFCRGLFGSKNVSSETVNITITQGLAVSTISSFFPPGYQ
The target in the next assay is FcγIIa (R131 allele) (UniProt P12318). The assay can be described thus: reverse ELISA, PAP on FcγIIa (R131 allele)-coated plate without competitor.
For the next assay, the target named is FCγIIIb (NA2) (UniProt O75015). The assay can be described thus: reverse ELISA (repeat), PAP on FcγIIIb (NA2)-coated plate without competitor.
Chain of UniProt O75015 (O75015 17-200 N65S limits assumed): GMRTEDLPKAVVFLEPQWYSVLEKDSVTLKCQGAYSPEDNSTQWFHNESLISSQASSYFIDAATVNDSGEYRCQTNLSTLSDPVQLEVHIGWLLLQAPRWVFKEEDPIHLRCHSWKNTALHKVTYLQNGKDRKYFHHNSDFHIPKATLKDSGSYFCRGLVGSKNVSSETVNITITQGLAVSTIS
The target in assay [3] is human C1q (Quidel Corp.) (human) (UniProt P02745). The assay can be described thus: reverse ELISA, PAP on C1q-coated plate without competitor.
Chain of UniProt P02745 (P02745 23-245 limits assumed, chain 1 of 3): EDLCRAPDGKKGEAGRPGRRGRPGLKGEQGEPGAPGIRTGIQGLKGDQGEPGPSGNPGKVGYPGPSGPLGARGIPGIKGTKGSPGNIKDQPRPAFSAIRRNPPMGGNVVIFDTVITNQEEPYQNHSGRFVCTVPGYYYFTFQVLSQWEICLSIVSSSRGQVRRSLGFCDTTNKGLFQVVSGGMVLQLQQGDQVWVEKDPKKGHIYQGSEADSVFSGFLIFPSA
Chain of UniProt P02745 (P02746 28-253 limits assumed, chain 2 of 3, further chain): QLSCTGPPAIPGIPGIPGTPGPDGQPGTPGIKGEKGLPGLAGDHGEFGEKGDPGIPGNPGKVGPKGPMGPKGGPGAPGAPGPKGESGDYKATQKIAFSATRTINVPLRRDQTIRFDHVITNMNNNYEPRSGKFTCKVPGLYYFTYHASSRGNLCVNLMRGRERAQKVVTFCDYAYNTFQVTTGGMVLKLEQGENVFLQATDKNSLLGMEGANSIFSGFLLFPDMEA
Chain of UniProt P02745 (P02747 29-245 limits assumed, chain 3 of 3, further chain): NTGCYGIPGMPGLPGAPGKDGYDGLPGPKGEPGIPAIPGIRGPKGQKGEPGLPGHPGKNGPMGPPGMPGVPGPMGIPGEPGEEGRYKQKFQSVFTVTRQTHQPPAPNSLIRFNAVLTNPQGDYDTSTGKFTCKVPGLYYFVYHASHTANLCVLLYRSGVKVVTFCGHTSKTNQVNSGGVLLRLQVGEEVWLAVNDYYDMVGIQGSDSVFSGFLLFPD
Assay [4] has as its target FcγIIa (His 131 allele aka H161) (UniProt P12318). Put plainly: reverse ELISA (repeat), PAP on FcγIIa (H131 allele)-coated plate without competitor.
Assay [5] addresses PAP complex: preformed immune complex of peroxidase and rabbit anti-peroxidase IgG (horseradish) (UniProt P00433). The assay can be described thus: reverse ELISA competition (repeat): inhibition by the peptide of PAP binding to immobilised FcγIIb/c.
For assay [6] the target is unchanged. Put plainly: reverse ELISA competition (repeat): PAP pre-incubated with peptide, then on plate coated with FcγIIb/c; signal is PAP left bound to the receptor.
The target is the same in assay [7]. The assay can be described thus: reverse ELISA competition (repeat): inhibition by the peptide of PAP binding to immobilised FcγIIa (H131 allele).
The target is the same in assay [8]. The assay can be described thus: reverse ELISA competition (repeat): PAP pre-incubated with peptide, then on plate coated with FcγIIa (H131 allele); signal is PAP left bound to the receptor.
The target is the same in assay [9]. Put plainly: reverse ELISA competition: PAP pre-incubated with peptide, then on plate coated with FcγIIa (R131 allele); signal is PAP left bound to the receptor.
Assay [10] shares this target. The assay can be described thus: reverse ELISA competition (repeat): inhibition by the peptide of PAP binding to immobilised FcγIIIb (NA2).
For assay [11] the target is unchanged. Put plainly: reverse ELISA competition (repeat): inhibition by the peptide of PAP binding to immobilised Fcγ1.
Assay [12] has the same target. The assay can be described thus: reverse ELISA competition (repeat): PAP pre-incubated with peptide, then on plate coated with FcγIIIb (NA2); signal is PAP left bound to the receptor.
For assay [13] the target is unchanged. The assay can be described thus: reverse ELISA competition: PAP pre-incubated with peptide, then on C1q-coated plate; signal is PAP left bound to immobilised human C1q (lower = more inhibition).
For assay [14] the target is unchanged. Put plainly: reverse ELISA competition: PAP pre-incubated with peptide, then on plate coated with FcγIIb; signal is PAP left bound to the receptor.
Assay [15] has the same target. Put plainly: reverse ELISA competition (repeat): PAP pre-incubated with peptide, then on plate coated with Fcγ1; signal is PAP left bound to the receptor.
Assay [16] shares this target. Put plainly: reverse ELISA competition: PAP pre-incubated with peptide, then on plate coated with FcγIIIa; signal is PAP left bound to the receptor.

Chain of UniProt P31994 (P31994 46-217 limits assumed): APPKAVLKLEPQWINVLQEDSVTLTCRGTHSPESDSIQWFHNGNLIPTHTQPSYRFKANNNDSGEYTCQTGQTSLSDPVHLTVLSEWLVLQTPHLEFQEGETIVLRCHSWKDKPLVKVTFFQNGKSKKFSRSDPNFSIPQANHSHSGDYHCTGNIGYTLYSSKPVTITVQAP

For the molecule “PAP complex: preformed immune complex of peroxidase and rabbit anti-peroxidase IgG (from UniProt P00433 31-338)”, the figures for the OD405 in the assay with FcγIIb [1], with FcγIIIa and with FcγIIa (R131 allele) were 1.39 OD405, 1.59 OD405 and 1.6 OD405, respectively. For the same molecule, the OD 405 nm amounted to 2.22 OD 405 nm in the assay with FcγIIb [2]; 2.33 OD 405 nm with FcγI; 3.06 OD 405 nm in the assay with FCγIIIb (NA2); 2.35 OD 405 nm in assay [3]; 3.51 OD 405 nm in assay [4].

B1: Peptide … (SEQ ID NO:20) (peptide)
peptide: APPDCAWHLGELVWCT
Turning to B1, the % inhibition of IC binding in assay [5] was determined as 88%; in [7] it was 94%; in assay [10] it was 91%; in assay [11] it was 89%. For the same molecule, the OD 405 nm turned out to be 0.266 OD 405 nm in assay [6]; 0.209 OD 405 nm in assay [8]; 0.266 OD 405 nm in [12]; 0.389 OD 405 nm in assay [13]; 0.264 OD 405 nm in [15]. For the same molecule, the OD405 was 0.509 OD405 in assay [9], 0.496 OD405 in assay [14] and 0.67 OD405 in assay [16].
